Results published in US20240182592A1 (CHIA TAI TIANQING PHARMACEUTICAL GROUP, published 2024).

T1: human BCMA on cells (human, UniProt Q02223 1-184)
T1 sequence (looked up): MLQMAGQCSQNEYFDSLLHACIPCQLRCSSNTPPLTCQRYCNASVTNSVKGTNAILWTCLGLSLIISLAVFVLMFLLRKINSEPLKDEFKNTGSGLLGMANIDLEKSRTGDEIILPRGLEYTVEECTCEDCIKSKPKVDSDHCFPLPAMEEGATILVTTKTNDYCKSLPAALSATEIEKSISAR

T2: human BCMA protein (human, UniProt Q02223 1-54, limits assumed)
T2 construct: also called hBCMA; Antigen BCMA
T2 sequence (looked up): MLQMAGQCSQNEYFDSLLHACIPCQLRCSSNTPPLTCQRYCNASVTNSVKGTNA

B1: anti-BCMA/anti-CD3 multispecific antibody PC3 (bispecific antibody, human IgG1, lambda, L234A L235A)
chain: QVQLVESGGGLVQPGGSLRLSCAASGFTFNSACMGWFRQAPGKGREGVSRIETGYGGTVYADSVKGRFTISRDNSKNTVYLQMNSLRAEDTAVYYCAAKRSWCTPTWWHELDYNYWGQGTQVTVSSGEPKSSDKTHTCPPCPAPEAAGGPSVFLFPPKPKDTLMISRTPEVTCVVVDVSHEDPEVKFNWYVDGVEVHNAKTKPREEQYNSTYRVVSVLTVLHQDWLNGKEYKCKVSNKALAAPIEKTISKAKGQPREPQVCTLPPSREEMTKNQVSLSCAVKGFYPSDIAVEWESNGQPENNYKTTPPVLDSDGSFFLVSKLTVDKSRWQQGNVFSCSVMHEALHNHYTQKSLSLSPGK
heavy: EVQLVESGGGLVQPGGSLRLSCAASGFTFNTYAMNWVRQAPGKGLEWVARIRSKYNNYATYYADSVKDRFTISRDDSKNTAYLQMNNLKTEDTAMYYCVRHGNFGNSYVSWFAYWGQGTLVTVSSASTKGPSVFPLAPSSKSTSGGTAALGCLVKDYFPEPVTVSWNSGALTSGVHTFPAVLQSSGLYSLSSVVTVPSSSLGTQTYICNVNHKPSNTKVDKKVEPKSCDKTHTCPPCPAPEAAGGPSVFLFPPKPKDTLMISRTPEVTCVVVDVSHEDPEVKFNWYVDGVEVHNAKTKPREEQYNSTYRVVSVLTVLHQDWLNGKEYKCKVSNKALAAPIEKTISKAKGQPREPQVYTLPPCREEMTKNQVSLWCLVKGFYPSDIAVEWESNGQPENNYKTTPPVLDSDGSFFLYSKLTVDKSRWQQGNVFSCSVMHEALHNRFTQKSLSLSPGK
light: QVQLVESGGGLVQPGGSLRLSCAASGYSSNVACMAWYRQAPGKGLEWVATIVADFGTTNYAASVKGRFTISQDNSKNTVYLQMNSLRAEDTAVYYCAATQRGGIDWCDEINYWGQGTLVTVSSGGGGSELVVTQEPSLTTSPGGTVTLTCRSSTGAVTTSNYANWVQQKPGQAPRGLIGGTNKRAPGTPARFSGSLLGGKAALTITGVQPEDEAEYYCALWYSNLWVFGGGTKLTVLGQPKANPTVTLFPPSSEELQANKATLVCLISDFYPGAVTVAWKADGSPVKAGVETTKPSKQSNNKYAASSYLSLTPEQWKSHRSYSCQVTHEGSTVEKTVAPTECS
notes: Trivalent; three chains; human IgG1 knobs-into-holes Fc
B2: anti-BCMA/anti-CD3 multispecific antibody BC24 (bispecific antibody, human IgG1, lambda, L234A L235A)
chain: QVQLVESGGGSVQAGGSLRLSCAASGYSSNVACMAWYRQAPGKEREWVATIVADFGTTNYAASVKGRFTISQDNAKNTVYLQMNSLKPEDSAMYYCAATQRGGIDWCDEINYWGQGTLVTVSSGGGGSGGGGSQVQLVESGGGSVQAGGSLRLSCAASGVTFNSACMGWFRQAPGKEREGVARIETGYGGTVYADSVKGRFTISRDNAKNTVYLQMNSLKPEDTAMYYCAAKRSWCTPTWWHELDYNYWGQGTQVTVSSGEPKSSDKTHTCPPCPAPEAAGGPSVFLFPPKPKDTLMISRTPEVTCVVVDVSHEDPEVKFNWYVDGVEVHNAKTKPREEQYNSTYRVVSVLTVLHQDWLNGKEYKCKVSNKALAAPIEKTISKAKGQPREPQVCTLPPSREEMTKNQVSLSCAVKGFYPSDIAVEWESNGQPENNYKTTPPVLDSDGSFFLVSKLTVDKSRWQQGNVFSCSVMHEALHNHYTQKSLSLSPGK
heavy: EVQLVESGGGLVQPGGSLRLSCAASGFTFNTYAMNWVRQAPGKGLEWVARIRSKYNNYATYYADSVKDRFTISRDDSKNTAYLQMNNLKTEDTAMYYCVRHGNFGNSYVSWFAYWGQGTLVTVSSASTKGPSVFPLAPSSKSTSGGTAALGCLVKDYFPEPVTVSWNSGALTSGVHTFPAVLQSSGLYSLSSVVTVPSSSLGTQTYICNVNHKPSNTKVDKKVEPKSCDKTHTCPPCPAPEAAGGPSVFLFPPKPKDTLMISRTPEVTCVVVDVSHEDPEVKFNWYVDGVEVHNAKTKPREEQYNSTYRVVSVLTVLHQDWLNGKEYKCKVSNKALAAPIEKTISKAKGQPREPQVYTLPPCREEMTKNQVSLWCLVKGFYPSDIAVEWESNGQPENNYKTTPPVLDSDGSFFLYSKLTVDKSRWQQGNVFSCSVMHEALHNRFTQKSLSLSPGK
light: ELVVTQEPSLTTSPGGTVTLTCRSSTGAVTTSNYANWVQQKPGQAPRGLIGGTNKRAPGTPARFSGSLLGGKAALTITGVQPEDEAEYYCALWYSNLWVFGGGTKLTVLGQPKANPTVTLFPPSSEELQANKATLVCLISDFYPGAVTVAWKADGSPVKAGVETTKPSKQSNNKYAASSYLSLTPEQWKSHRSYSCQVTHEGSTVEKTVAPTECS
notes: Trivalent: 1A10 VHH and 1A11 VHH in tandem on one Fc polypeptide, anti-CD3 Fab on the other; human IgG1 knobs-into-holes Fc

What was measured:
[1] = target: T3, human CD3e (Acro, Cat. No. CDE-H5223) (human, UniProt P07766 23-126); assay: SPR (Biacore T200), antibody captured by anti-hIgG, human CD3e as analyte, 1:1 model
T3 construct: also called human CD3e protein; hCD3e
T3 sequence (P07766 23-126 limits assumed): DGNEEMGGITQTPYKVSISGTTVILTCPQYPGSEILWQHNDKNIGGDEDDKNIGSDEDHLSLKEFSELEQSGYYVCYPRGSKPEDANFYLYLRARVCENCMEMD
Protocol: (§1) The affinity of the test antibody for human CD3e or human BCMA protein was determined by Biacore T200 (GE) as follows:
(§2) The response signals were detected in real time using Biacore software, and association and dissociation curves were obtained. The buffer used in the experiment was Biacore universal buffer (137 mM NaCl, 2.7 mM KCl, 10 mM Na₂HPO₄.12H₂O, 1.8 mM KH₂PO₄. 0.05% surfactant P-20 (w/v), pH 7.4). […] The flow rate in the flow cell was at 50 μL/min, the association was performed for 240 s, the dissociation was performed for 1400 s, the regeneration was performed using 3 M MgCl (GE) for 60 s, and the baseline was stable. Results were obtained by calculation according to the affinity and kinetics 1:1 binding mode in biacore evaluation software.

human BCMA on cells [2] = target: T1, human BCMA on cells; assay: cell-based or functional assay
human BCMA on cells [3] = target: T1, human BCMA on cells; assay: cell-based or functional assay; remark: listed apart in the source
T cell surface CD3 = target: T4, T cell surface CD3 (human, UniProt P07766 23-207); assay: flow cytometry, human CD3+ T cells
T4 construct: whole, on cells; also called CD3^+ T cells
T4 sequence (P07766 23-207): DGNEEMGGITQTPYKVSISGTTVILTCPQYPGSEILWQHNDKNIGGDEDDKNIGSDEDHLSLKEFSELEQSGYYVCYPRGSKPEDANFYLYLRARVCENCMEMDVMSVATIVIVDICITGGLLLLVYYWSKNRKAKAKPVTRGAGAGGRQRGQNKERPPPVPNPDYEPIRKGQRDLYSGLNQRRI
Protocol: Human PBMC cells were sorted for CD3⁺ T cells using CD3 magnetic beads (Miltenyi, catalog No. 130-097-043): the cryopreserved PBMCs were thawed, and washed by centrifugation twice for counting. Running buffer (MACS, catalog No. 130-091-221) was added in a cell-to-buffer ratio of 10⁷:80 μL, CD3 beads were added in a cell-to-bead ratio of 10⁷:20 μL, and the mixture was mixed well and incubated at 4° C. for 15 min. The cells were washed with buffer in a cell-to-buffer ratio of 10⁷:1-2 mL. After centrifugation, the supernatant was discarded, and 500 μL of buffer was added to resuspend the cell pellet. The LS sorting column (Miltenyi, catalog No. 130-042-401) was placed on the MidiMACS Starting Kit (LS) magnetic rack (Miltenyi, catalog No. 130-091-051). After rinsing, the cell suspension was added and washed thrice. The LS sorting column was removed from the magnetic rack and placed on a clean centrifuge tube and 5 mL buffer was added to collect the sorted CD3⁺ T cells. After counting, the CD3⁺ T cells were adjusted to a cell density of 5×10⁶-10×10⁶ cells/mL using RPMI medium (Hyclone, catalog No. SH30809.01) containing 2% FBS (fetal bovine serum) and seeded in a 96-well U-bottom cell culture plate (Costar, catalog No. 3799) at 50 μL per well. The test antibodies at different concentrations were prepared using the medium described above. […] The antibodies at different concentrations were added to the 96-well cell culture plate described above at 50 μL per well, mixed well and incubated at 4° C. for 1 h. The cells were washed with pre-cooled running buffer (MACS, catalog No. 130-091-221), and the supernatant was discarded. Pre-cooled fluorescent labeled goat anti-human IgG antibodies (Jackson, catalog No. 109-116-170) were added, and the cells were resuspended at 100 μL per well, mixed well and incubated at 4° C. for 30 min. After washing, 100 μL of pre-cooled running buffer was added to resuspend the cells.

human BCMA protein = target: T2, human BCMA protein; assay: SPR (Biacore T200), antibody captured by anti-hIgG, human BCMA as analyte, 1:1 model
Protocol: as §1, §2

human BCMA on cells [4] = target: T1, human BCMA on cells; assay: flow cytometry, MM1S cells
Protocol: (§3) NCI-H929 cells (BCMA+++), MM1S cells (BCMA++), and RPMI-8226 cells (BCMA+) in the logarithmic growth phase were taken, adjusted to a cell density of 5×10⁶-10×10⁶ cells/mL using RPMI medium (Hyclon, catalog No. SH30809.01) containing 2% FBS (fetal bovine serum), respectively, and seeded in a 96-well U-bottom cell culture plate (Costar, catalog No. 3799) at 50 μL per well. The test antibodies at different concentrations were prepared using the medium described above. […] The antibodies at different concentrations were added to the 96-well cell culture plate described above at 50 μL per well, mixed well and incubated at 4° C. for 1 h. The cells were washed with pre-cooled running buffer (MACS, catalog No. 130-091-221), and the supernatant was discarded. Pre-cooled fluorescent labeled goat anti-human IgG antibodies (Jackson, catalog No. 109-116-170) were added, and the cells were resuspended at 100 μL per well, mixed well and incubated at 4° C. for 30 min. After washing, 100 μL of pre-cooled running buffer was added to resuspend the cells. The cells were mixed well and collected while flowing on an Attune™ NxT flow cytometer, and the data was analyzed using Graphpad Prism5 software. FIGS. 7-9 and Table 11 show the binding ability of the anti-BCMA/anti-CD3 multispecific antibodies to NCI-H929 cells (BCMA+++), MM1S cells (BCMA++), and RPMI-8226 cells (BCMA+).

human BCMA on cells [5] = target: T1, human BCMA on cells; assay: cell-based or functional assay; remark: listed apart in the source
human BCMA on cells [6] = target: T1, human BCMA on cells; assay: flow cytometry, NCI-H929 cells
Protocol: as §3

Binder	Kd [1]	Lysis EC50, NCI-H929 cells with human PBMCs (E:T 10:1, 24 h, LDH release) (human BCMA on cells [2])	Maximum lysis rate, NCI-H929 cells with human PBMCs (human BCMA on cells [2])	Lysis EC50, MM1S cells with human PBMCs (E:T 10:1, 24 h, LDH release) (human BCMA on cells [3])	Maximum lysis rate, MM1S cells with human PBMCs (human BCMA on cells [3])	EC50 (T cell surface CD3)	Top(MFI) (T cell surface CD3)	Kd (human BCMA protein)	EC50 (human BCMA on cells [4])	Top(MFI) (human BCMA on cells [4])	Lysis EC50, RPMI-8226 cells with human PBMCs (E:T 10:1, 24 h, LDH release) (human BCMA on cells [5])	Maximum lysis rate, RPMI-8226 cells with human PBMCs (human BCMA on cells [5])	EC50 (human BCMA on cells [6])	Top(MFI) (human BCMA on cells [6])
B1	1.17 nM	0.187 nM	35%	0.0407 nM	36%	85.8 nM	98400 MFI	0.0347 nM	0.338 nM	124000 MFI	0.0142 nM	39%	0.837 nM	223000 MFI
B2	0.286 nM	0.0218 nM	40%	0.00937 nM	21%	38.3 nM	163000 MFI	0.0627 nM	0.535 nM	107000 MFI	0.0113 nM	29%	1.56 nM	186000 MFI
